# ± gives the uncertainty stated by the source.
# Assay: protein stability index of a GFP-peptide fusion (yeast GPS) (PSI 1-4); higher = more stable; sorted into four equal gates, so the index is relative within each strain
# Summary of the method: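 Plasmids isolated from each sorting gate were PCR-amplified and Illumina-sequenced, and barcodes assigned the reads to strains. The gates, four of equal size, were set by GFP/Cherry fluorescence ratio on mid-log cultures in leucine-free medium. These cultures were yeast carrying a pooled library of tiled 17-residue yeast protein peptides fused downstream of GFP on a plasmid that also expresses Cherry. The protein stability index is the sum of every gate's read frequency times its gate number.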
Sequence,protein stability index (doa10∆),protein stability index (pdr5∆),protein stability index (san1∆),protein stability index (ubr1∆)
GSSASSRKAHGLNAKQL [POP1],3.21 ± 0.069,3.27 ± 0.084,3.13 ± 0.077,3.04 ± 0.066
GSSRIIASDGSECIVSI [RRP42],3.33 ± 0.14,3.27 ± 0.075,3.11 ± 0.061,3.12 ± 0.15
GSVLLTLLNFVSNNVLR [ECM29],1.43 ± 0.054,1.31 ± 0.059,1.67 ± 0.1,2.03 ± 0.073
GSYIDKKCPFTGLVSIR [RPS11A],2.12 ± 0.07,2.06 ± 0.059,2.27 ± 0.081,2.2 ± 0.049
GTGRSGQGAFGNMCRGG [RPL4A],3.49 ± 0.14,3.37 ± 0.078,3.33 ± 0.11,3.24 ± 0.063
GTISIQLKNGLLEKYNT [MTR3],2.28 ± 0.059,2.5 ± 0.073,2.42 ± 0.082,2.43 ± 0.037
GTQMTLKTFHFAGVASM [RPO31],1.63 ± 0.11,1.85 ± 0.088,1.68 ± 0.13,2.1 ± 0.12
GTSKYLINGHRAPQQSV [SMC2],2.13 ± 0.054,2.36 ± 0.047,2.27 ± 0.076,2.22 ± 0.052
GTSVISMKYDNGVIIAA [PRE4],2.05 ± 0.19,,,
GVEEEEELKDSEINEIL [SNF2],3.14 ± 0.16,3.33 ± 0.11,2.31 ± 0.12,2.72 ± 0.075
GVFDPASYSKYLIDHIK [RPL22B],3.12 ± 0.051,3.1 ± 0.069,2.92 ± 0.06,2.9 ± 0.043
GVIDDSFDVAISTACPR [SMC4],2.59 ± 0.077,3.09 ± 0.046,2.45 ± 0.058,2.7 ± 0.049
GVNELAPIPKGRVKYTK [POP1],3.05 ± 0.08,2.87 ± 0.06,3.17 ± 0.066,2.67 ± 0.069
GVPDDKWEQTYKKPTGG [FAS1],3.38 ± 0.07,3.29 ± 0.1,3.2 ± 0.093,3.09 ± 0.069
GVQTAYIDYSSKRYIPS [RRP40],2.43 ± 0.067,2.61 ± 0.057,2.48 ± 0.1,2.33 ± 0.068
GYILEGEELAFYLRRLT [RPS8A],1.26 ± 0.078,1.41 ± 0.07,1.24 ± 0.17,1.31 ± 0.25
GYTQHGGLRPFGVSFIY [PRE9],2.67 ± 0.22,2.03 ± 0.098,1.84 ± 0.1,1.65 ± 0.064
HASFLCSFITQDKMFVS [FAS1],2.01 ± 0.063,1.64 ± 0.056,1.35 ± 0.1,1.35 ± 0.033
HATVVPPEEFSNTIDEL [SRB7],3.19 ± 0.071,3.25 ± 0.09,2.89 ± 0.1,3.02 ± 0.089
HCYPRQLCQITCQILES [RRP46],1.8 ± 0.059,1.9 ± 0.058,1.72 ± 0.088,2 ± 0.048
HDEKTLAPSKHQPITSE [SIR4],2.08 ± 0.088,2.27 ± 0.1,2.33 ± 0.12,2.27 ± 0.22
HDKNIQKLLKQLDSDAN [ISW2],2.58 ± 0.049,2.52 ± 0.049,2.69 ± 0.053,2.93 ± 0.032
HDSILHSRILPKKALKV [RRP43],2.08 ± 0.038,2.04 ± 0.041,1.68 ± 0.079,1.75 ± 0.034
HDVGELFWKVKEEEGSF [PRE2],2.71 ± 0.081,2.97 ± 0.08,2.92 ± 0.064,2.86 ± 0.07
HEFKLIVGKKIQEFLVV [GRR1],2.73 ± 0.046,2.09 ± 0.062,2.38 ± 0.076,2.4 ± 0.059
HELGINIDSLKFNELVK [BRR2],2.89 ± 0.07,2.93 ± 0.058,3.08 ± 0.054,2.9 ± 0.06
HELPRYGITHGLTNWAA [RPL5],2.44 ± 0.045,2.42 ± 0.035,2.47 ± 0.048,2.25 ± 0.035
HFPINVNIVEKDGAKFI [RPL9A],2.58 ± 0.069,2.57 ± 0.079,2.53 ± 0.065,2.5 ± 0.07

Sequence,protein stability index (doa10∆),protein stability index (pdr5∆),protein stability index (san1∆),protein stability index (ubr1∆)
HGAASFLKERLMEASDA [RPB2],1.37 ± 0.15,1.48 ± 0.09,1.1 ± 0.18,1.03 ± 0.087
HGIKDIPIGHVHVIHFQ [AAR2],2.89 ± 0.06,2.86 ± 0.058,2.87 ± 0.059,2.75 ± 0.041
HGKRRSQVVETHKVTDI [YMR129W/POM152],3.35 ± 0.13,3.01 ± 0.13,3.18 ± 0.064,3.2 ± 0.058
HHAIEEAESLLQFHVAT [RPO21],2.67 ± 0.094,2.89 ± 0.13,2.64 ± 0.11,2.94 ± 0.087
HHYRPDMTTEEGLDLLK [PRE1],3.32 ± 0.19,3.41 ± 0.17,,3.53 ± 0.093
HIIQAKADAQREKALNE [RPL19A],3.29 ± 0.19,3.38 ± 0.094,3.33 ± 0.086,
HIRKASSKKSKRLDKVG [LRP1],3.21 ± 0.087,2.78 ± 0.1,2.97 ± 0.061,2.95 ± 0.066
HITSVPISAVLRGCKFL [GRR1],1.77 ± 0.044,1.66 ± 0.048,1.86 ± 0.064,2.05 ± 0.037
HIVQDCTLTADGAYALS [ASC1],2.37 ± 0.057,2.69 ± 0.062,2.52 ± 0.12,2.44 ± 0.064
HKDIPEEDFYTVVGNAS [DSN1],2.94 ± 0.091,2.91 ± 0.18,2.73 ± 0.1,3.19 ± 0.062
HKHREARGLTATGKKSR [RPL15A],3.58 ± 0.2,3.37 ± 0.15,3.31 ± 0.069,3.15 ± 0.068
HKISFSGTKSEVLTYVN [YJL039C/NUP192],2.65 ± 0.093,2.49 ± 0.082,2.39 ± 0.11,2.7 ± 0.087
HKKKRSNAAGADDAISM [SRB8],3.06 ± 0.11,2.45 ± 0.067,2.83 ± 0.18,2.75 ± 0.054
HKNERRVLEIQTSLVRM [SKI6],2.99 ± 0.091,2.63 ± 0.078,2.44 ± 0.13,2.96 ± 0.053
HKSLIRSISWAPSIGRW [YGL100W/SEH1],2.81 ± 0.12,3.1 ± 0.11,2.21 ± 0.22,3.1 ± 0.091
HKVQTKLTRELEKKFQD [RPS7A],2.43 ± 0.066,2.01 ± 0.06,2.37 ± 0.091,2.54 ± 0.048
HLALEIGEVYNDQVEKD [RPN1],,,3.41 ± 0.19,
HLDNSKSVFSSAGLDSA [RPN1],2.58 ± 0.064,2.69 ± 0.043,2.25 ± 0.063,2.15 ± 0.055
HLEEYGYLIQVLLTFLQ [YCS4],1.59 ± 0.078,1.35 ± 0.09,1.21 ± 0.17,1.13 ± 0.097
HLILDKLNQKYDIVKFL [GRR1],1.83 ± 0.041,1.66 ± 0.035,1.3 ± 0.1,1.81 ± 0.03
HLPCTIEAEEAEEIGVE [RPN8],1.8 ± 0.078,1.74 ± 0.082,2.59 ± 0.11,2.89 ± 0.053
HNGSHRTVAGFSNVELP [ARP7],3.1 ± 0.071,2.83 ± 0.07,2.72 ± 0.085,2.8 ± 0.048
HNGWVTSLATSAGQPNL [ASC1],2.32 ± 0.044,2.04 ± 0.049,2.09 ± 0.08,2.12 ± 0.052
HNSVKRYQIMLPEQLKS [SNM1],1.16 ± 0.042,1.59 ± 0.052,1.44 ± 0.1,1.74 ± 0.041
HPFIPLLKEKPNALKPL [RRP6],2.54 ± 0.065,2.7 ± 0.067,2.94 ± 0.076,2.71 ± 0.053
HPGYDCWLSNIDIQTQD [RRI1],2.72 ± 0.099,3.14 ± 0.091,3.08 ± 0.062,3.16 ± 0.075
HPNRVLEHLHSTAFQNT [COR1],2.79 ± 0.041,2.92 ± 0.047,2.4 ± 0.051,2.92 ± 0.045

# — the supplement of paper PMC9732359
